Key:
Test in all cases: two-hybrid; LexA-Cdc1 bait (pBTM116 or pBTM116BN) with Gal4-Pol3 prey and co-expressed c-myc-tagged Cdc27 (pAA-Cdc27) in S. cerevisiae CTY10-5d; ONPG liquid culture beta-galactosidase assay, mean of triplicates, as percent of wild-type Cdc1
Conditions in all cases: partners not purified
Cdc1-J16 = target: T1, Cdc1-J16 (Schizosaccharomyces pombe, UniProt P87324 1-462, Val-GlyGlyThrProVal-Asp)
T1 construct: Cdc1, S. pombe, with a pentapeptide inserted after residue 160; source: yeast two-hybrid fusion, in S. cerevisiae CTY10-5d
T1 sequence (looked up): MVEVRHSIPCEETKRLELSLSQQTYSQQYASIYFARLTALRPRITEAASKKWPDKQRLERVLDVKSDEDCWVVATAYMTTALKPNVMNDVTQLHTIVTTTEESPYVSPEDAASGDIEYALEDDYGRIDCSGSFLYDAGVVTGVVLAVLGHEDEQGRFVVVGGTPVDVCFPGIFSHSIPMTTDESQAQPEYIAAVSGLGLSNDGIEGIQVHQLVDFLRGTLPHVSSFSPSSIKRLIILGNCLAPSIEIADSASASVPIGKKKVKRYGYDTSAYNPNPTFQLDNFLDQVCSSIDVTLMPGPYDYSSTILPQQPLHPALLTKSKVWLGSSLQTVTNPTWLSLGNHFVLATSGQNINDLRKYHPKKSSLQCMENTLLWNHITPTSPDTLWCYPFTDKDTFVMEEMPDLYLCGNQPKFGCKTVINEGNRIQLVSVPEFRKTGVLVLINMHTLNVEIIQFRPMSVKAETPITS

Cdc1-J22 = target: T2, Cdc1-J22 (Schizosaccharomyces pombe, UniProt P87324 1-462, Arg-GlyValProLeuArg-Gly)
T2 construct: Cdc1, S. pombe, with a pentapeptide inserted after residue 212; source: yeast two-hybrid fusion, in S. cerevisiae CTY10-5d
T2 sequence (looked up): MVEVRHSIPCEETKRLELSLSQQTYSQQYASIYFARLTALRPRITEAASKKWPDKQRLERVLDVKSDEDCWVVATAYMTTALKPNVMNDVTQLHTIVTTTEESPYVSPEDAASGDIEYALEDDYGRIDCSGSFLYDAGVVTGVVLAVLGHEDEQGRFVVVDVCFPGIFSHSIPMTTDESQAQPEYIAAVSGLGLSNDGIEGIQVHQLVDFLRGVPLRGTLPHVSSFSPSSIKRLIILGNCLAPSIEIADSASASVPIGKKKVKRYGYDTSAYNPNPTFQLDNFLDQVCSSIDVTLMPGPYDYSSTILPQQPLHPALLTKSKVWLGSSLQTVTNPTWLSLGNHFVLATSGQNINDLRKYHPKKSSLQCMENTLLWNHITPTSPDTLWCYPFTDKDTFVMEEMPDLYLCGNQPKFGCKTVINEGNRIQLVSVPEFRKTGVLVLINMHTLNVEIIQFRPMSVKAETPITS

Cdc1-J15 = target: T3, Cdc1-J15 (Schizosaccharomyces pombe, UniProt P87324 1-462, Gln-GlyValProLeuGln-Val)
T3 construct: Cdc1, S. pombe, with a pentapeptide inserted after residue 203; source: yeast two-hybrid fusion, in S. cerevisiae CTY10-5d
T3 sequence (looked up): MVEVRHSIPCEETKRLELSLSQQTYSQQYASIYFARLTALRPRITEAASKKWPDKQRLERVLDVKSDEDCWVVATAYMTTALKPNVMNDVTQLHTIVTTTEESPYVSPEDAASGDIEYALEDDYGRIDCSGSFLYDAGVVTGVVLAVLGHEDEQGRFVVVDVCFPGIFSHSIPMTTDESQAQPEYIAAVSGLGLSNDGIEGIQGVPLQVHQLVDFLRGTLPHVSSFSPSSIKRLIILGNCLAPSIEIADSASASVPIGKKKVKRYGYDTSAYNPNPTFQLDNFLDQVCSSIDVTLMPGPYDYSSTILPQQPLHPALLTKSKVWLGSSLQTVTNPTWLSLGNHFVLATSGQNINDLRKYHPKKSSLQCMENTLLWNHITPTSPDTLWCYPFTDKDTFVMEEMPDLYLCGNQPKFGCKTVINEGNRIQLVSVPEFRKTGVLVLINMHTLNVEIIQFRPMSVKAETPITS

Cdc1-A2 = target: T4, Cdc1-A2 (Schizosaccharomyces pombe, UniProt P87324 1-462, Gly293Ala)
T4 construct: Cdc1, S. pombe, point mutant; source: yeast two-hybrid fusion, in S. cerevisiae CTY10-5d
T4 sequence (looked up): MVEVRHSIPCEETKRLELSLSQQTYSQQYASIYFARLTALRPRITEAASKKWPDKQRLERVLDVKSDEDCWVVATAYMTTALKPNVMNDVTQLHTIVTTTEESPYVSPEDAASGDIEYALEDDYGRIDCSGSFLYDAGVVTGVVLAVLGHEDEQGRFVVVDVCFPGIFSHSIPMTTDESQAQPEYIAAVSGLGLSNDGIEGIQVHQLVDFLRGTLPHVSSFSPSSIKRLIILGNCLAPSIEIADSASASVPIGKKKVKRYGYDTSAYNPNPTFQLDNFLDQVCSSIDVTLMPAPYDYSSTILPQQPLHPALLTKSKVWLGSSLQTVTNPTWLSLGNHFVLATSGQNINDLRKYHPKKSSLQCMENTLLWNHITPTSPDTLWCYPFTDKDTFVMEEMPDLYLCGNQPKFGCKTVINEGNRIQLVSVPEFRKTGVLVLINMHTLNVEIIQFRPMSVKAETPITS

B1: Pol3 (fission yeast DNA polymerase delta catalytic subunit) (natural protein, Schizosaccharomyces pombe, UniProt P30316 1-1086, looked up)
chain: MTDRSSNEGVVLNKENYPFPRRNGSIHGEITDVKRRRLSERNGYGDKKGSSSKEKTSSFEDELAEYASQLDQDEIKSSKDQQWQRPALPAINPEKDDIYFQQIDSEEFTEGSVPSIRLFGVTDNGNSILVHVVGFLPYFYVKAPVGFRPEMLERFTQDLDATCNGGVIDHCIIEMKENLYGFQGNEKSPFIKIFTTNPRILSRARNVFERGEFNFEELFPVGVGVTTFESNTQYLLRFMIDCDVVGMNWIHLPASKYQFRYQNRVSNCQIEAWINYKDLISLPAEGQWSKMAPLRIMSFDIECAGRKGVFPDPSIDPVIQIASIVTQYGDSTPFVRNVFCVDTCSQIVGTQVYEFQNQAEMLSSWSKFVRDVDPDVLIGYNICNFDIPYLLDRAKSLRIHNFPLLGRIHNFFSVAKETTFSSKAYGTRESKTTSIPGRLQLDMLQVMQRDFKLRSYSLNAVCSQFLGEQKEDVHYSIITDLQNGTADSRRRLAIYCLKDAYLPQRLMDKLMCFVNYTEMARVTGVPFNFLLARGQQIKVISQLFRKALQHDLVVPNIRVNGTDEQYEGATVIEPIKGYYDTPIATLDFSSLYPSIMQAHNLCYTTLLDSNTAELLKLKQDVDYSVTPNGDYFVKPHVRKGLLPIILADLLNARKKAKADLKKETDPFKKAVLDGRQLALKVSANSVYGFTGATNGRLPCLAISSSVTSYGRQMIEKTKDVVEKRYRIENGYSHDAVVIYGDTDSVMVKFGVKTLPEAMKLGEEAANYVSDQFPNPIKLEFEKVYFPYLLISKKRYAGLFWTRTDTYDKMDSKGIETVRRDNCPLVSYVIDTALRKMLIDQDVEGAQLFTKKVISDLLQNKIDMSQLVITKALSKTDYAAKMAHVELAERMRKRDAGSAPAIGDRVAYVIIKGAQGDQFYMRSEDPIYVLENNIPIDAKYYLENQLSKPLLRIFEPILGEKASSLLHGDHTRTISMAAPSVGGIMKFAVKVETCLGCKAPIKKGKTALCENCLNRSAELYQRQVAQVNDLEVRFARLWTQCQRCQGSMHQDVICTSRDCPIFYMRIAEHKKLQQSVDLLKRFDEMSW
notes: DNA polymerase delta catalytic subunit Pol3, S. pombe; prey plasmid named pACT-Pol3 in the results and pGAD2F-Pol3 in the methods; also called Gal4-Pol3; pACT-Pol3; source: yeast two-hybrid fusion, in S. cerevisiae CTY10-5d
Cdc1-J16
  two-hybrid beta-galactosidase activity, % of wild-type Cdc1: < 1%
Cdc1-J22
  two-hybrid beta-galactosidase activity, % of wild-type Cdc1: 25%
Cdc1-J15
  two-hybrid beta-galactosidase activity, % of wild-type Cdc1: 1%
Cdc1-A2
  two-hybrid beta-galactosidase activity, % of wild-type Cdc1: < 1%

From paper PMC2734569, “Functional mapping of the fission yeast DNA polymerase δ B-subunit Cdc1 by site-directed and random pentapeptide insertion mutagenesis” (BMC Molecular Biology, 2009)
